Test results as given in article PMC8887465.

T1: PemK WT (Staphylococcus aureus CH-91 (plasmid …, UniProt L7PFJ6 1-112))
T1 sequence: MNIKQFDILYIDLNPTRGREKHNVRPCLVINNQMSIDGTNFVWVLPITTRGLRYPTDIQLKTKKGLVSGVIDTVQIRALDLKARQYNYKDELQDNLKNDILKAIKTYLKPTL

B1: ssRNA UUdUAUUAA (ssRNA)
RNA: UUUAUUAA
modifications: deoxyuridine at position 3 (dU3), rest RNA

Experiments:
[1] = target: Staphylococcus aureus PemK toxin, wild type (Staphylococcus aureus CH-91 (plasmid pCH91)); test: SEC-MALS
[2] = target: T1, PemK WT; test: NMR titration

Molecule	stoichiometry N [1]	binding result [2]
Staphylococcus aureus PemK toxin, wild type (enzyme)	2	–
B1	–	binds
